# From patent US20230310634A1, “ANTI-HUMAN VISTA ANTIBODIES AND USE THEREOF” (IMMUNEXT, INC., priority 2020, published 2023)
# T1: human VISTA on cells (human) (UniProt Q9H7M9)
# T1 sequence: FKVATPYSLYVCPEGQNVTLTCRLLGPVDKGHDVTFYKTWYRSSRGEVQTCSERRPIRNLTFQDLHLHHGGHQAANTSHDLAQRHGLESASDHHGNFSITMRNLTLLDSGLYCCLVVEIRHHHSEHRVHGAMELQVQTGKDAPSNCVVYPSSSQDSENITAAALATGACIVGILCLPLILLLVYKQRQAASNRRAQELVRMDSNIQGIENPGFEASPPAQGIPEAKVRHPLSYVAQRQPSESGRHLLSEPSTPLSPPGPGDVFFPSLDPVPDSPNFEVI
# B1: Anti-VISTA GG8 (antibody, V domains shown)
# VH: EVQLQQSGPELVKPGTSMKISCKASGYSFTGYTMNWVRQSHGKNLEWIGLINPYNGGINYNQKFKARATLTVDKSSSTAYMELLSLTSEDSAVYYCARRTLLRPYFFDYWGQGTTLTVSS
# VL: DIVLTQSPASLAVSLGQRATISCRASQSVSTSTFSYMHWYQQKPGQPPKLLIKYASNLESGVPARFSGSGSGTDFTLNIHPVEEEDTATYYCQHSWEIPYTFGGGTKLEIK
# modifications: Alexa Fluor 647 dye conjugated to the antibody (p-1554); attachment sites not given
# What was measured:
# [1] = biological target: T1, human VISTA on cells (human); assay: flow cytometry with quantification beads, CD14+ monocytes of human PBMC, n=5 donors
# [2] = biological target: T1, human VISTA on cells (human); assay: flow cytometry with quantification beads, CD20+ B cells in human whole blood, n=3 donors
# [3] = biological target: T1, human VISTA on cells (human); assay: flow cytometry with quantification beads, CD4+ T cells of human PBMC, n=5 donors
# [4] = biological target: T1, human VISTA on cells (human); assay: flow cytometry with quantification beads, CD4+ CD25+ CD127low Tregs of human PBMC, n=5 donors
# [5] = biological target: T1, human VISTA on cells (human); assay: flow cytometry with quantification beads, CD66b+ neutrophils in human whole blood, n=3 donors
# [6] = biological target: T1, human VISTA on cells (human); assay: flow cytometry with quantification beads, Tregs in human whole blood, n=3 donors
# [7] = biological target: T1, human VISTA on cells (human); assay: flow cytometry with quantification beads, CD14+ monocytes in human whole blood, n=3 donors
# [8] = biological target: T1, human VISTA on cells (human); assay: flow cytometry with quantification beads, CD8+ T cells in human whole blood, n=3 donors
# [9] = biological target: T1, human VISTA on cells (human); assay: flow cytometry with quantification beads, CD4+ T cells in human whole blood, n=3 donors
# [10] = biological target: T1, human VISTA on cells (human); assay: flow cytometry with quantification beads, CD8+ T cells of human PBMC, n=5 donors
binder,measurement,setting,value
B1,antibody binding capacity (ABC) (ABC (molecules per cell)),[1],112000
same,antibody binding capacity (ABC) (ABC (molecules per cell)),[2],1280
same,antibody binding capacity (ABC),[3],5940 molecules
same,antibody binding capacity (ABC),[4],6640 molecules
same,antibody binding capacity (ABC) (ABC (molecules per cell)),[5],68600
same,antibody binding capacity (ABC),[6],7490 molecules
same,antibody binding capacity (ABC) (ABC (molecules per cell)),[7],224000
same,antibody binding capacity (ABC),[8],5010 molecules
same,antibody binding capacity (ABC),[9],8720 molecules
same,antibody binding capacity (ABC),[10],9960 molecules
